Consider one molecule from doi:10.1101/2025.09.14.676084, “A validated antibody toolbox for ALS research” (bioRxiv, 2025).

The test has as its target T1, PFN1 (Homo sapiens (assumed; ALS risk gene …, UniProt P07737).
T1 construct: PFN1, the protein encoded by the ALS risk gene PFN1; Surmised: endogenous protein in the lysate of a human cell line, as in the YCharOS workflow; also called profilin-1 (protein encoded by the ALS risk gene PFN1)
Description: immunoprecipitation, detected by immunoblot; the antibody was used to immunoprecipitate its target; counted as successful when the target protein was specifically enriched relative to the starting material, confirmed by immunoblot of the immunoprecipitated protein. The following applies: one partner purified.

T1 sequence (P07737 whole entry): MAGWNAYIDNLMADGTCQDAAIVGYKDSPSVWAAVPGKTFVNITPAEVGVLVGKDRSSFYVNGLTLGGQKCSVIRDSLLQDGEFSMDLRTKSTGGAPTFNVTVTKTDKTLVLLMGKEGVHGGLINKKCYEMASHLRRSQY

B1: scFv against PFN1 (recombinant single-chain variable fragment antibody generated by the Structural Genomics Consortium) (scFv, V domains shown)
VH: EVQLLESGGGLVQPGGSLRLSCAASGFTFYSSYMYWVRQAPGKGLEWVSSISGYGGYTYYADSVKGRFTISRDNSKNTLYLQMNSLRAEDTAVYYCARWDGYMDYWGQGTLVTVSS
VL: DIQMTQSPSSLSASVGDRVTITCRASQSISSYLNWYQQKPGKAPKLLIYAASSLQSGVPSRFSGSGSGTDFTLTISSLQPEDFATYYCQQYWDYGLPTFGQGTKLEIK
notes: selected by phage display against recombinant biotinylated antigen; plasmid deposited at Addgene (id not given); also called the scFv against PFN1; custom scFv antibody
As for B1, the binding result is on record as “binds”.
